Results reported in patent US20090068195A1.

Legend:
[1] = target: non-human primate (cynomolgus monkey) IL-13 (cynomolgus monkey); assay: cell-based or functional assay
[2] = target: native human IL-13 (human) (UniProt P35225); assay: cell-based or functional assay
Chain of native human IL-13 (human) (P35225 other isoform, or with tags, fused parts or gaps limits assumed): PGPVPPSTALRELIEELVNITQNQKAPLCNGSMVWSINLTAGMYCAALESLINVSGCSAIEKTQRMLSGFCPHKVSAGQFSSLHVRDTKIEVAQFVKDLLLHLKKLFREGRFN

Chain of non-human primate (cynomolgus monkey) IL-13 (cynomolgus monkey) (Q5I6E4 other isoform, or with tags, fused parts or gaps limits assumed): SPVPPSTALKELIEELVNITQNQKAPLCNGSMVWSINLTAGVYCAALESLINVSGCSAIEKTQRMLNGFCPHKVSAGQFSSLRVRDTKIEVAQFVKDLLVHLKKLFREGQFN

B1: antibody with the murine heavy chain of MJ2-7 and a humanized light chain (antibody, part only; not given: humanized light chain, V domains shown, part only)
VH: EVQLQQSGAELVKPGASVKLSCTGSGFNIKDTYIHWVKQRPEQGLEWIGRIDPANDNIKYDPKFQGKATITADTSSNTAYLQLNSLTSEDTAVYYCARSEENWYDFFDYWGQGTTLTVSS
- CD23 expression, IC50 [1]: 0.308 nM
- STAT6 phosphorylation, IC50 [2]: 0.554 nM
